The source of these data is patent US20160244497A1 (Amgen, published 2016).

To fix the notation:
B1: PEGylated FGF21 mutant H125C (ligand)
chain: MHPIPDSSPLLQFGGQVRQRYLYTDDAQQTEAHLEIREDGTVGGAADQSPESLLQLKALKPGVIQILGVKTSRFLCQRPDGALYGSLHFDPEACSFRELLLEDGYNVYQSEAHGLPLHLPGNKSPCRDPAPRGPARFLPLPGLPPAPPEPPGILAPQPPDVGSSDPLSMVGPSQGRSPSYAS
modifications: 20 kDa methoxy-PEG-maleimide on Cys 125
B2: PEGylated FGF21 mutant E91C (ligand)
chain: MHPIPDSSPLLQFGGQVRQRYLYTDDAQQTEAHLEIREDGTVGGAADQSPESLLQLKALKPGVIQILGVKTSRFLCQRPDGALYGSLHFDPCACSFRELLLEDGYNVYQSEAHGLPLHLPGNKSPHRDPAPRGPARFLPLPGLPPAPPEPPGILAPQPPDVGSSDPLSMVGPSQGRSPSYAS
modifications: 20 kDa methoxy-PEG-maleimide on Cys 91
B3: PEGylated FGF21 mutant E37C (ligand)
chain: MHPIPDSSPLLQFGGQVRQRYLYTDDAQQTEAHLEIRCDGTVGGAADQSPESLLQLKALKPGVIQILGVKTSRFLCQRPDGALYGSLHFDPEACSFRELLLEDGYNVYQSEAHGLPLHLPGNKSPHRDPAPRGPARFLPLPGLPPAPPEPPGILAPQPPDVGSSDPLSMVGPSQGRSPSYAS
modifications: 20 kDa methoxy-PEG-maleimide on Cys 37
B4: PEGylated FGF21 mutant D38C (ligand)
chain: MHPIPDSSPLLQFGGQVRQRYLYTDDAQQTEAHLEIRECGTVGGAADQSPESLLQLKALKPGVIQILGVKTSRFLCQRPDGALYGSLHFDPEACSFRELLLEDGYNVYQSEAHGLPLHLPGNKSPHRDPAPRGPARFLPLPGLPPAPPEPPGILAPQPPDVGSSDPLSMVGPSQGRSPSYAS
modifications: 20 kDa methoxy-PEG-maleimide on Cys 38
B5: PEGylated FGF21 mutant G113C (ligand)
chain: MHPIPDSSPLLQFGGQVRQRYLYTDDAQQTEAHLEIREDGTVGGAADQSPESLLQLKALKPGVIQILGVKTSRFLCQRPDGALYGSLHFDPEACSFRELLLEDGYNVYQSEAHCLPLHLPGNKSPHRDPAPRGPARFLPLPGLPPAPPEPPGILAPQPPDVGSSDPLSMVGPSQGRSPSYAS
modifications: 20 kDa methoxy-PEG-maleimide on Cys 113
B6: PEGylated FGF21 mutant D79C (ligand)
chain: MHPIPDSSPLLQFGGQVRQRYLYTDDAQQTEAHLEIREDGTVGGAADQSPESLLQLKALKPGVIQILGVKTSRFLCQRPCGALYGSLHFDPEACSFRELLLEDGYNVYQSEAHGLPLHLPGNKSPHRDPAPRGPARFLPLPGLPPAPPEPPGILAPQPPDVGSSDPLSMVGPSQGRSPSYAS
modifications: 20 kDa methoxy-PEG-maleimide on Cys 79
B7: PEGylated FGF21 mutant R77C (ligand)
chain: MHPIPDSSPLLQFGGQVRQRYLYTDDAQQTEAHLEIREDGTVGGAADQSPESLLQLKALKPGVIQILGVKTSRFLCQCPDGALYGSLHFDPEACSFRELLLEDGYNVYQSEAHGLPLHLPGNKSPHRDPAPRGPARFLPLPGLPPAPPEPPGILAPQPPDVGSSDPLSMVGPSQGRSPSYAS
modifications: 20 kDa methoxy-PEG-maleimide on Cys 77
B8: PEGylated FGF21 mutant Y179C (ligand)
chain: MHPIPDSSPLLQFGGQVRQRYLYTDDAQQTEAHLEIREDGTVGGAADQSPESLLQLKALKPGVIQILGVKTSRFLCQRPDGALYGSLHFDPEACSFRELLLEDGYNVYQSEAHGLPLHLPGNKSPHRDPAPRGPARFLPLPGLPPAPPEPPGILAPQPPDVGSSDPLSMVGPSQGRSPSCAS
modifications: 20 kDa methoxy-PEG-maleimide on Cys 179
B9: PEGylated FGF21 mutant D46C (ligand)
chain: MHPIPDSSPLLQFGGQVRQRYLYTDDAQQTEAHLEIREDGTVGGAACQSPESLLQLKALKPGVIQILGVKTSRFLCQRPDGALYGSLHFDPEACSFRELLLEDGYNVYQSEAHGLPLHLPGNKSPHRDPAPRGPARFLPLPGLPPAPPEPPGILAPQPPDVGSSDPLSMVGPSQGRSPSYAS
modifications: 20 kDa methoxy-PEG-maleimide on Cys 46
B10: PEGylated FGF21 mutant K69C (ligand)
chain: MHPIPDSSPLLQFGGQVRQRYLYTDDAQQTEAHLEIREDGTVGGAADQSPESLLQLKALKPGVIQILGVCTSRFLCQRPDGALYGSLHFDPEACSFRELLLEDGYNVYQSEAHGLPLHLPGNKSPHRDPAPRGPARFLPLPGLPPAPPEPPGILAPQPPDVGSSDPLSMVGPSQGRSPSYAS
modifications: 20 kDa methoxy-PEG-maleimide on Cys 69
B11: PEGylated FGF21 mutant N121C (ligand)
chain: MHPIPDSSPLLQFGGQVRQRYLYTDDAQQTEAHLEIREDGTVGGAADQSPESLLQLKALKPGVIQILGVKTSRFLCQRPDGALYGSLHFDPEACSFRELLLEDGYNVYQSEAHGLPLHLPGCKSPHRDPAPRGPARFLPLPGLPPAPPEPPGILAPQPPDVGSSDPLSMVGPSQGRSPSYAS
modifications: 20 kDa methoxy-PEG-maleimide on Cys 121
B12: PEGylated FGF21 mutant R175C (ligand)
chain: MHPIPDSSPLLQFGGQVRQRYLYTDDAQQTEAHLEIREDGTVGGAADQSPESLLQLKALKPGVIQILGVKTSRFLCQRPDGALYGSLHFDPEACSFRELLLEDGYNVYQSEAHGLPLHLPGNKSPHRDPAPRGPARFLPLPGLPPAPPEPPGILAPQPPDVGSSDPLSMVGPSQGCSPSYAS
modifications: 20 kDa methoxy-PEG-maleimide on Cys 175
B13: PEGylated FGF21 mutant R126C (ligand)
chain: MHPIPDSSPLLQFGGQVRQRYLYTDDAQQTEAHLEIREDGTVGGAADQSPESLLQLKALKPGVIQILGVKTSRFLCQRPDGALYGSLHFDPEACSFRELLLEDGYNVYQSEAHGLPLHLPGNKSPHCDPAPRGPARFLPLPGLPPAPPEPPGILAPQPPDVGSSDPLSMVGPSQGRSPSYAS
modifications: 20 kDa methoxy-PEG-maleimide on Cys 126
B14: PEGylated FGF21 mutant G120C (ligand)
chain: MHPIPDSSPLLQFGGQVRQRYLYTDDAQQTEAHLEIREDGTVGGAADQSPESLLQLKALKPGVIQILGVKTSRFLCQRPDGALYGSLHFDPEACSFRELLLEDGYNVYQSEAHGLPLHLPCNKSPHRDPAPRGPARFLPLPGLPPAPPEPPGILAPQPPDVGSSDPLSMVGPSQGRSPSYAS
modifications: 20 kDa methoxy-PEG-maleimide on Cys 120
B15: dually PEGylated FGF21 mutant K69C, R77C (ligand)
chain: MHPIPDSSPLLQFGGQVRQRYLYTDDAQQTEAHLEIREDGTVGGAADQSPESLLQLKALKPGVIQILGVCTSRFLCQCPDGALYGSLHFDPEACSFRELLLEDGYNVYQSEAHGLPLHLPGNKSPHRDPAPRGPARFLPLPGLPPAPPEPPGILAPQPPDVGSSDPLSMVGPSQGRSPSYAS
modifications: 20 kDa methoxy-PEG-maleimide on Cys 69 and on Cys 77
B16: dually PEGylated FGF21 mutant K69C, R175C (ligand)
chain: MHPIPDSSPLLQFGGQVRQRYLYTDDAQQTEAHLEIREDGTVGGAADQSPESLLQLKALKPGVIQILGVCTSRFLCQRPDGALYGSLHFDPEACSFRELLLEDGYNVYQSEAHGLPLHLPGNKSPHRDPAPRGPARFLPLPGLPPAPPEPPGILAPQPPDVGSSDPLSMVGPSQGCSPSYAS
modifications: 20 kDa methoxy-PEG-maleimide on Cys 69 and on Cys 175
B17: dually PEGylated FGF21 mutant E37C, G170C (ligand)
chain: MHPIPDSSPLLQFGGQVRQRYLYTDDAQQTEAHLEIRCDGTVGGAADQSPESLLQLKALKPGVIQILGVKTSRFLCQRPDGALYGSLHFDPEACSFRELLLEDGYNVYQSEAHGLPLHLPGNKSPHRDPAPRGPARFLPLPGLPPAPPEPPGILAPQPPDVGSSDPLSMVCPSQGRSPSYAS
modifications: 20 kDa methoxy-PEG-maleimide on Cys 37 and on Cys 170
B18: dually PEGylated FGF21 mutant H125C, R175C (ligand)
chain: MHPIPDSSPLLQFGGQVRQRYLYTDDAQQTEAHLEIREDGTVGGAADQSPESLLQLKALKPGVIQILGVKTSRFLCQRPDGALYGSLHFDPEACSFRELLLEDGYNVYQSEAHGLPLHLPGNKSPCRDPAPRGPARFLPLPGLPPAPPEPPGILAPQPPDVGSSDPLSMVGPSQGCSPSYAS
modifications: 20 kDa methoxy-PEG-maleimide on Cys 125 and on Cys 175

The target in the first assay is beta-klotho. Briefly: cell-based or functional assay.
With B1, the “EC50, ELK-luciferase assay” value was found to be 4.5 nM. For the molecule B2, the “EC50, ELK-luciferase assay” value came to 8.3 nM. On to B3, for which the “EC50, ELK-luciferase assay” value is 6.9 nM.

B4: the “EC50, ELK-luciferase assay” value was 13.1 nM. For B5, the “EC50, ELK-luciferase assay” value was 12 nM.

Regarding B6, the “EC50, ELK-luciferase assay” value came out at 20.4 nM. Same read-out and setting: then B7, with 4.9 nM; and B8, with 287 nM; and B9, with 27.8 nM.

Take B10: the “EC50, ELK-luciferase assay” value stood at 5.3 nM. On to B11, for which the “EC50, ELK-luciferase assay” value came to 9.2 nM.

With B12, the “EC50, ELK-luciferase assay” value amounted to 7.9 nM. In the case of B13, the “EC50, ELK-luciferase assay” value turned out to be 10 nM. For B14, the “EC50, ELK-luciferase assay” value amounted to 6 nM.

In the next assay the target is beta-klotho. The assay is described as follows: cell-based or functional assay. This is another data set of the same source.
As for B15, the “EC50, ELK-luciferase assay” value was 180 nM. Consider B16, for which the “EC50, ELK-luciferase assay” value is 318 nM. Take B17: the “EC50, ELK-luciferase assay” value turned out to be 163 nM. B18: the “EC50, ELK-luciferase assay” value was 200 nM.
